Where a chain is given by its changes, count along the chain named.
T1: human IL-1α (human, UniProt P01583 113-271)
T1 construct: Purified recombinant protein
T1 sequence (looked up): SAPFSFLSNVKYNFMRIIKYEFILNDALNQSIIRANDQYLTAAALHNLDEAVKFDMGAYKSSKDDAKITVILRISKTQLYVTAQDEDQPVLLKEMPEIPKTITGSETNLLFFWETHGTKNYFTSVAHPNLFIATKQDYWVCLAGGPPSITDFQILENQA

T2: IL-1β receptor IL-1R on the surface of HEK-Blue IL-1β cells (UniProt P14778 18-569, limits assumed)
T2 sequence (looked up): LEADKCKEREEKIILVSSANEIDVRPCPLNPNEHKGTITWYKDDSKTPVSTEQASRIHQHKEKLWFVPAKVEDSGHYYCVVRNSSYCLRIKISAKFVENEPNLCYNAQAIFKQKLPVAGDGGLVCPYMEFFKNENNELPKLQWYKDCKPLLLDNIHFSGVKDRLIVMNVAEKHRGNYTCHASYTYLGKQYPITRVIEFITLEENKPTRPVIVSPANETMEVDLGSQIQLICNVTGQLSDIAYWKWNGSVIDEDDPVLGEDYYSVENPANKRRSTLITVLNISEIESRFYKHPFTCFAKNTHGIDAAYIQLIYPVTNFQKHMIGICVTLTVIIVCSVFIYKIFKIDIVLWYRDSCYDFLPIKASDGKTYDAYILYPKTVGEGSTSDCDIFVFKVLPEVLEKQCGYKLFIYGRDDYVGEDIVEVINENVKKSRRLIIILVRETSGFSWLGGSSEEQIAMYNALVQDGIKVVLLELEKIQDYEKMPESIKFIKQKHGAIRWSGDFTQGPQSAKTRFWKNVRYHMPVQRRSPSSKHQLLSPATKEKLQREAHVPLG

T3: mouse IL-1β (mouse, UniProt P10749 118-269)
T3 sequence (looked up): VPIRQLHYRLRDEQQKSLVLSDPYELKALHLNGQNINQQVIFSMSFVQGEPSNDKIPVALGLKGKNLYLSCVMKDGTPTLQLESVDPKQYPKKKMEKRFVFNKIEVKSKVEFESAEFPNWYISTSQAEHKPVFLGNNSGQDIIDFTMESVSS

B1: TAVO7376 (humanized IgG1 antibody, 304VH1 with 304VL1) (antibody, V domains shown)
VH: EVQLVESGGGLVQPGGSLRLSCAASGFTFSSFGMHWVRQAPGKGLEWVAYISIGSYTVHYADSVKGRFTISRDNAKNSLYLQMNSLRDEDTAVYYCVRDDYDVTDYTMDYWGQGTTVTVSS
VL: DIQMTQSPSSLSASVGDRVTITCKSSQSLLNSRTRKNYLAWYQQKPGKAPKLLIYWASTRESGVPSRFSGSGSGTDFTLTISSLQPEDFATYYCKQTYNFPTFGQGTKLEIKR
notes: Humanized IgG1
B2: TAVO7377 (humanized IgG1 antibody, 304VH1 with 304VL2) (antibody, V domains shown)
VH: B1 VH
VL: B1 VL with I21M, L84V, F89L
notes: Humanized IgG1
B3: Rhesus monkey IL-1β (ligand, UniProt P48090 117-269, looked up)
chain: APVRSLHCTLRDAQLKSLVMSGPYELKALHLQGQDLEQQVVFSMSFVQGEESNDKIPVALGLKAKNLYLSCVLKDDKPTLQLESVDPKNYPKKKMEKRFVFNKIEINNKLEFESAQFPNWYISTSQAENMPVFLGGTRGGQDITDFTMQFVSS
B4: mouse monoclonal anti-human IL-1β antibody TAVO304 (antibody, V domains shown)
VH: DVQLVESGGGLVQPGGSRKLSCAASGFTFSSFGMHWVRQAPEKGLEWVAYISIGSYTVHYADTVKGRFTISRDNPKNTLFLQMTSLRSEDTAMYYCVRDDYDVTDYTMDYWGQGTSVTVSS
VL: DIVMSQSPSSLAVSTGEKVTMSCKSSQSLLNSRTRKNYLAWYQQKPGQSPKLLIYWASTRESGVPDRFTGSGSGTDFTLTIGSVQAEDLAVYYCKQTYNFPTFGGGTKLEIK
notes: Mouse monoclonal antibody from hybridoma screening

Legend:
Rhesus monkey IL-1β [1] = target: B3; assay: cell-based or functional assay
[2] = target: T4, recombinant human IL-1β (R&D systems) (human, UniProt P01584 117-269); assay: cell-based or functional assay
human IL-1α = target: T1, human IL-1α; assay: ELISA with purified recombinant protein
Protocol: To evaluate the binding specificity, cytokines homologous to IL-1β such as IL-1α were evaluated for binding to humanized antibodies in ELISA-based binding assay with purified recombinant protein.

[3] = target: T2, IL-1β receptor IL-1R on the surface of …; assay: cell-based or functional assay
mouse IL-1β = target: T3, mouse IL-1β; assay: ELISA, plate coated with mouse IL-1β
Protocol: (§1) By hybridoma screening, TAVO304 was identified as a mouse anti-human IL-1β antibody. ELISA-based binding assay was employed to evaluate TAVO304 binding to recombinant human IL-1β. In this assay, 1 μg/ml recombinant human IL-1β (R&D systems) were coated on ELISA plate. Increasing concentrations of TAVO304 antibodies were applied on the plate and their binding to the recombinant human IL-1P were detected by HRP-conjugated anti-mouse secondary antibody.
(§2) The binding of TAVO304 to mouse and Rhesus monkey IL-1β were also evaluated in similar ELISA assay by coating the plate with mouse and Rhesus monkey IL-1β respectively.

[4] = target: T4, recombinant human IL-1β (R&D systems); assay: ELISA, 1 µg/ml recombinant human IL-1β coated, HRP anti-mouse secondary antibody
Protocol: as §1

Rhesus monkey IL-1β [5] = target: B3; assay: ELISA, plate coated with Rhesus monkey IL-1β
Protocol: as §1, §2

IC50 of neutralizing rhesus monkey IL-1β driven reporter gene expression, HEK-Blue IL-1β reporter assay (Rhesus monkey IL-1β [1])	IC50 of blocking human IL-1β-mediated IL-6 release from MRC-5 cells [2]	IC50 of neutralizing human IL-1β driven reporter gene expression, HEK-Blue IL-1β reporter assay [2]	binding result (human IL-1α)	EC50 of reporter gene (SEAP) expression in HEK-Blue IL-1β reporter assay [3]	fold potency against reference antibody refAb-1 in IL-1β inhibition, HEK-Blue IL-1β reporter assay [2]	binding result (mouse IL-1β)	EC50 [4]	EC50 (Rhesus monkey IL-1β [5])	Binder
~0.018 µg/mL	~50 ng/mL	~0.09 µg/mL	no binding (tested: 1 ug/mL)	–	–	–	–	–	B1
~0.018 µg/mL	~50 ng/mL	~0.09 µg/mL	no binding (tested: 1 ug/mL)	–	–	–	–	–	B2
–	–	–	–	0.16 ng/mL	–	–	–	–	B3
0.0036 µg/mL	–	0.12 µg/mL	–	–	> 6 fold	no binding	3.6 ng/mL	0.0122 µg/mL	B4
